Amyloid nucleation score data for 67 substances are collected here from the supplement of paper PMC12042874.

± gives the uncertainty stated by the source.

Data set [1] in a line: amyloid nucleation score (Sup35N fusion, yeast selection) (log enrichment); library NNK2; higher = more nucleation; inactive = no reads after selection. The method in brief:
(§1)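 Peptides of 20 random codons, each fused to Sup35N, were expressed in psi-negative yeast. Cells were induced with 100 μM copper sulfate for 24 hours and grown 7 days at 30°C on medium lacking adenine and uracil, and plasmid inserts before and after selection were Illumina-sequenced. Nucleation scores are DiMSum log enrichments of output over input reads, centred on the mode score of non-aggregating sequences, and sequences under 100 input reads were excluded.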

The nature of data set [2]: amyloid nucleation score (Sup35N fusion, yeast selection) (log enrichment); library NNK3; higher = more nucleation; inactive = no reads after selection. An outline of the steps: as §1

In data set [1], MLYVAVTS showed an amyloid nucleation score of 0.459 ± 0.25. Same read-out and setting: for PLNGIRFWSDVNLSRDGSSM the value was -0.025 ± 1.1.

For the substance IVVSKVLLIWFPLLRRGANL, the amyloid nucleation score in data set [1] came to 0.159 ± 0.49.

For the substance KFKATWYRNSFRAMPCVKPA, in data set [1], the amyloid nucleation score came to 0.042 ± 1.1. On to GGGYLCRVDYGSIDLTWLKS, for which the amyloid nucleation score in data set [1] is -0.559 ± 0.76. VYYWHEYFIDWY: the amyloid nucleation score in data set [1] is -1.27 ± 1.1.

Consider FSSEIRTLGQELVFGVISKA, for which the amyloid nucleation score in data set [1] was -0.307 ± 0.76. As for PTLTSIELSSTPRIRFWDSA, the amyloid nucleation score in data set [1] turned out to be 0.122 ± 0.26. Take VLKQLLFFS: in data set [1], the amyloid nucleation score stood at 4.357 ± 0.039.

For NSIYLCLSAGRFDSMKVNSE, the amyloid nucleation score in data set [1] came to 4.22 ± 0.076. Consider VTIEFATHLWGVMY, for which the amyloid nucleation score in data set [1] was 4.78 ± 0.072. Still for that read-out and setting: for EGVKLECVLYVYDHSARRLL the value was “inactive”; for NPLFHSPV, 0.01 ± 0.65; for YVLKIGSY, -0.617 ± 0.44. As for CWLEKLGGSRCFNFNDNKLP, the amyloid nucleation score in data set [1] was -1.19 ± 0.75. Turning to RCGVYRVTHSEAERSLSISL, in data set [1], the amyloid nucleation score amounted to 0.698 ± 0.57.

Regarding WDSVRSWKPFPHTSNKWFIL, the amyloid nucleation score in data set [1] was -0.679 ± 0.48.

Turning to MHCIFSNLV, in data set [1], the amyloid nucleation score entry is “inactive”. In data set [1], GGKFSVIGVGHLLDGEH gave an amyloid nucleation score of 1.14 ± 0.15.

Turning to ELLYWCANHDAGIVRVEFWW, the amyloid nucleation score in data set [1] turned out to be 1.48 ± 0.1.

YYEYQVIYSVCSMRI gave an amyloid nucleation score in data set [1] of -0.31 ± 1. Same read-out and setting: for LVANSSVHVNSSTSNNRLAV the value was -0.917 ± 0.56.

For the substance ELDWKASTIGKMNHIRLERR, in data set [1], the amyloid nucleation score is 0.145 ± 0.23.

Substance VMIVFLDAFFGNLRANVVWY came in with an amyloid nucleation score in data set [1] of -0.846 ± 0.49. Still for that read-out and setting: for FSFTYQRFSDITCQSTLGLV the value was -0.705 ± 0.26. As to ANNFCRINESDWVRSVILPS, the amyloid nucleation score in data set [1] came to 0.042 ± 1.1. Same read-out and setting: with NDSFSFDSRCVVDRFGVAKK the figure was -0.612 ± 0.76. The same measure, in the same setting: with ISTYSLCLLSWWH the figure was 9.469 ± 0.054.

On to IYSEDGRAMASMIHVSRKHG, for which the amyloid nucleation score in data set [1] was determined as 0.91 ± 0.43. In data set [1], FGMLFGQDKTVHRSGLDLCG had an amyloid nucleation score of 0.119 ± 0.5. In the case of CSIMFIG, in data set [1], the amyloid nucleation score came to 0.858 ± 0.47. Turning to IVDTRGVPIWREISSIRVDL, in data set [1], the amyloid nucleation score is -0.669 ± 0.74. Same read-out and setting: with TDFFCLTIFFNVEHVISKCI the figure was 2.14 ± 0.17. For the substance IQSDLNNLLMHVRVFMCSAV, in data set [1], the amyloid nucleation score was found to be 4.05 ± 0.065.

Take SYFNVNWARFQVGYSLIVCL: in data set [1], the amyloid nucleation score is 6.131 ± 0.04.

CMVMGNERM showed an amyloid nucleation score in data set [1] of -0.011 ± 0.22. Same read-out and setting: for MYLGH the value was -0.864 ± 1.1; for MRCDTVMKSSYASVASMGL, “inactive”.

For the substance IISFLLFGEGGFFLVLY, the amyloid nucleation score result in data set [1] is “inactive”.

For the substance RFQVSLEILSIYRCRTTTD, in data set [1], the amyloid nucleation score amounted to 3.27 ± 0.15.

In data set [1], PTPYKGRLLFPHHSGLYLIG yielded an amyloid nucleation score of -1.23 ± 1.1. As to VLFVTVPLSMVIMVSQT, the amyloid nucleation score in data set [1] was -0.277 ± 1. As to GMFIMQNGLFYRQSLVAWW, the amyloid nucleation score in data set [1] is -0.995 ± 0.45. The same measure, in the same setting: for IYHLPNR the value was 5.988 ± 0.035; for LAGWRRK, 0.355 ± 0.36. MSKARFRWSDNTDPFFSVGQ yielded an amyloid nucleation score in data set [2] of 0.196 ± 0.51.

Turning to FLNKITNVSIYLIGTRETDV, the amyloid nucleation score in data set [2] turned out to be 2.81 ± 0.064.

Turning to LFSTNNYNQLWGMVGFLGFG, the amyloid nucleation score result in data set [2] is “inactive”. MMDSWYVVVRYLSTLYNCDI: the amyloid nucleation score result in data set [2] is “inactive”.

Turning to KMRFLIALNVTTWGPKLLCG, the amyloid nucleation score result in data set [2] is “inactive”.

For the substance WQTDEDRRCKTDFISLF, the amyloid nucleation score entry in data set [2] was “inactive”. On the same count and under the same terms, with EFTFWWCCDRYSRAELTCRR the entry was “inactive”. The same measure, in the same setting: for GVMDDSDIL the value was -0.492 ± 0.84.

In data set [2], EAFSSHKNFNVTCFPK came in with an amyloid nucleation score of 1.77 ± 0.11. On the same count and under the same terms, with DLLYYLRSCDFCCCMDTS the entry was “inactive”; with PYVQRNVCCAPV, “inactive”. With CSNVRPLD, in data set [2], the amyloid nucleation score result is “inactive”. On the same count and under the same terms, for SLKRHQTWLDGVEVRVVYMP the value was “inactive”. As to DIEYEY, the amyloid nucleation score result in data set [2] is “inactive”. Same read-out and setting: with LANFHDITWWTWMTSHTGGS the entry was “inactive”; with EGRCMRKCARVNGSWAMKWM, “inactive”. Still for that read-out and setting: with GHNRYIDLSIEIRAL the figure was -0.61 ± 1.1; with SNGNMLRSYVSTPCDRGKGS, “inactive”; with FVMSFAN, “inactive”. Still for that read-out and setting: with RHLIAFVVNNSFLVDYDSIS the entry was “inactive”. VTCNVSSYGTMKEKVAYEGS returned an amyloid nucleation score in data set [2] of -0.003 ± 0.88. Same read-out and setting: with LVWVKLAANAFVV the figure was 1.4 ± 0.074.
